US10323078B2, “Isolated peptides and fragments thereof from fibrinogen for use as drugs, particularly in skin inflammatory diseases” (Universite Paris Descartes, priority 2015, dated 2019)

B1: MKRMVSWSFHKLKTMKHLLLLLLCVFLVKSQGVNDNEEGFFSARGHRPLDKKREEAPSLRPAPPPISGGGYRARPAKAAATQKKVERKAPDAGGCLHADPDLGVLC (protein)
chain: MKRMVSWSFHKLKTMKHLLLLLLCVFLVKSQGVNDNEEGFFSARGHRPLDKKREEAPSLRPAPPPISGGGRARPAKAAATQKKVERKAPDAGGCLHADPDLGVLCMKRMVSWSFHKLKTMKHLLLLLLCVFLVKSQGVNDNEEGFFSARGHRPLDKKREEAPSLRPAPPPISGGGYRARPAKAAATQKKVERKAPDAGGCLHADPDLGVLC
modifications: GST fusion; fragment Fg1
notes: fragment of Bß chain of human fibrinogen having 106 amino acids; recombinant GST-fused peptide expressed in E. coli

Experiments:
Pfg = test: Western ligand blot with biotinylated Pfg; assay type: binding, Propionibacterium acnes; settings: biotinylated Pfg 0.1 μg/ml
NHDK cells = test: IL-8 production by keratinocytes stimulated by peptidoglycanne (PGN); assay type: cell-based, human; settings: NHDK pre-treated 24 h with 1.75 to 7 μM, then PGN 10 μg/ml
Description: FIG. 19: Dose-dependent inhibition of IL-8 production by keratinocyte pre-treated by small Fg1-generated peptides and stimulated by peptidoglycanne (PGN). NHDK cell were incubated for 24 h with recombinant peptide Fg1 (light gray bar) and Fg2 (dark gray bar) at concentrations ranging from 1.75 to 7 μM. Measurement of IL-8 production was realized by ELISA as described in Materials and Methods. Controls experiments were done with unstimulated NHDK cell (white bar) and HDF stimulated with PGN at 10 μg/ml (black bar). Data are means±S.D. of three separate experiments. Statistical significance is indicated by * (P<0.05), ** (P<0.01), *** (P<0.001), and **** (P<0.0001), respectively. […]
Human IL-1ß, IL-8, IL-12, hBD-2, and TNF-α protein concentration was measured in the supernatants of stimulated cells using various ELISA Set kits (Ready-Set-Go kit from eBioscience for acne experiments, and for psoriasis experiments the Duo set IL-8 kit from R&D Systems and the BD-2 Human Development (hBD-2) from Peprotech) according to the manufacturer's instructions. […] The optical density was determined at 450 nm at a wavelength correction of 540 nm.
The production of IL-8 was also measured NHDK cells stimulated by LTA, LPS and PGN, in presence or not of Fg1 or Fg2. […]

| Molecule | Recognition by biotinylated Pfg after electrophoretic separation of fibrinogen (Pfg; 10 μg per lane, 10% SDS-PAGE) | Decrease of IL-8 production by PGN-stimulated cells (NHDK cells) | Recognition of GST-fused recombinant Bß fibrinogen fragments by biotinylated Pfg (Pfg; E. coli total protein after IPTG induction, 12.5% SDS-PAGE) |
| --- | --- | --- | --- |
| human fibrinogen: purified commercial human fibrinogen (Sigma), glycoprotein hexamer of Aα, Bß and γ chains | recognized by Pfg | – | – |
| B1 | – | significantly decreases production of IL-8 | recognized |
